The labels stand for the following.
B1: Alb23 G100A (VHH)
VHH: EVQLLESGGGLVQPGGSLRLSCAASGFTFRSFGMSWVRQAPGKGPEWVSSISGSGSDTLYADSVKGRFTISRDNSKNTLYLQMNSLRPEDTAVYYCTIGASLSRSSQGTLVTVSS
notes: VHH alone
B2: Alb23 L59A (VHH)
VHH: B1 VHH with L59A, A100G
notes: VHH alone
B3: Alb23 M34A (VHH)
VHH: B1 VHH with M34A, A100G
notes: VHH alone
B4: Alb23 G99A (VHH)
VHH: B1 VHH with G99A, A100G
notes: VHH alone
B5: Alb23 G33A/S101A (VHH)
VHH: B1 VHH with G33A, A100G, S101A
notes: VHH alone
B6: OA-Fc-ABDEG-Alb23-S101T (Fc fusion)
chain: DKTHTCPPCPAPELLGGPSVFLFPPKPKDTLYITREPEVTCVVVDVSHEDPEVKFNWYVDGVEVHNAKTKPREEQYNSTYRVVSVLTVLHQDWLNGKEYKCKVSNKALPAPIEKTISKAKGQPREPQVYTLPPSRDELTKNQVSLWCLVKGFYPSDIAVEWESNGQPENNYKTTPPVLDSDGSFFLYSKLTVDKSRWQQGNVFSCSVMHEALKFHYTQKSLSLSPGGGGGSGGGGSGGGGSGGGGSEVQLLESGGGLVQPGGSLRLSCAASGFTFRSFGMSWVRQAPGKGPEWVSSISGSGSDTLYADSVKGRFTISRDNSKNTLYLQMNSLRPEDTAVYYCTIGGTLSRSSQGTLVTVSS
Fc: DKTHTCPPCPAPELLGGPSVFLFPPKPKDTLYITREPEVTCVVVDVSHEDPEVKFNWYVDGVEVHNAKTKPREEQYNSTYRVVSVLTVLHQDWLNGKEYKCKVSNKALPAPIEKTISKAKGQPREPQVYTLPPSRDELTKNQVSLSCAVKGFYPSDIAVEWESNGQPENNYKTTPPVLDSDGSFFLVSKLTVDKSRWQQGNVFSCSVMHEALKFHYTQKSLSLSPG
B7: TA-Fc-ABDEG-2H11 (Fc fusion)
chain: GGGGSGGGGSGGGGSGGGGSELQVVESGGGLVQAGGSLRLSCAASGRTFRSNTMGWFRQAPGKEREFVAAITWSGGTTYYADSVKGRFAISGDNAKNTVYLQMNSLKPEDTAVYYCAAEGPKWEPWNGIYHPADFGSWGQGTQVTVSS
notes: also called 2H11 parental (two-armed Fc-ABDEG-20GS-Cterm fusion); not shown: Fc-ABDEG domain
B8: 2H11-v12 fused at the C-terminus of Fc-ABDEG (two-armed) (Fc fusion)
chain: B7 chain with Y130A
notes: not shown: Fc-ABDEG domain
B9: 2H11-v3 fused at the C-terminus of Fc-ABDEG (two-armed) (Fc fusion)
chain: B7 chain with P121A
notes: not shown: Fc-ABDEG domain
B10: 2H11-v16 fused at the C-terminus of Fc-ABDEG (two-armed) (Fc fusion)
chain: B7 chain with F135A
notes: not shown: Fc-ABDEG domain
B11: 2H11-v15 fused at the C-terminus of Fc-ABDEG (two-armed) (Fc fusion)
chain: B7 chain with D134A
notes: not shown: Fc-ABDEG domain
B12: Alb23 F32A (VHH)
VHH: B1 VHH with F32A, A100G
notes: VHH alone

Numbering of substitutions follows the chain as printed. Names and notes keep the numbering of the source.

One assay has as its target T1, cynomolgus monkey serum albumin (cynomolgus monkey, UniProt A2V9Z4 25-608).
T1 construct: Immobilised on SPR chips; also called cynoSA; cynomolgus albumin
Kind of assay: SPR Biacore 8K+ SCK, albumin on chip, ratio of KD. For orientation: In SPR one partner is held on a chip, and binding of the other changes the refractive index at the surface.
As for B1, the “KD pH 5.5/pH 7.4” value came to 0.57.
Consider B2, for which the “KD pH 5.5/pH 7.4” value turned out to be 0.46.
Same read-out and setting: the figure for B3 is 0.42; for B4 it is 0.31; for B5 it is 0.42.

The next assay has as its target T2, human serum albumin (human, UniProt P02768 25-609).
T2 construct: Immobilised on SPR chips; also added in solution in the FcRn occupancy assays; also called HSA; humanSA
Kind of assay: SPR Biacore, HSA coated, steady state, pH 5.5.
The molecule B6 had a Kd of 70.8 nM.

The next assay addresses T2, human serum albumin. Nature of the assay: SPR Biacore 3000, HSA on chip, pH 7.4.
Take B7: the “R0 pH 7.4” value turned out to be 115 RU and the koff was determined as 0.00072 s⁻¹.
For B8, in that order: 6.32 RU and 0.0012 s⁻¹.
Turning to B9, the “R0 pH 7.4” value turned out to be 8.24 RU and the koff was 0.0029 s⁻¹.
For B10, in that order: 0.571 RU and 0.00193 s⁻¹.
For B11, in that order: 0.635 RU and 0.0025 s⁻¹.

For a further assay, the target named is T2, human serum albumin. Nature of the assay: SPR Biacore 8K+ SCK, albumin on chip, pH 7.4.
In the case of B1, the Kd worked out at 30.6 nM, the koff is 0.0232 s⁻¹ and the kon came to 758000 M⁻¹ s⁻¹.
Turning to B2, the affinity, expressed as Kd, was 51 nM; the koff turned out to be 0.0451 s⁻¹; the kon was found to be 885000 M⁻¹ s⁻¹.
For B3, binding was put at a Kd of 175 nM, the off-rate constant (koff) was determined as 0.226 s⁻¹ and the kon was 1.29e+06 M⁻¹ s⁻¹.
B4 had a Kd of 100 nM, a koff of 0.0954 s⁻¹ and a kon of 955000 M⁻¹ s⁻¹.
For the molecule B5, binding was put at a Kd of 116 nM, the koff was found to be 0.133 s⁻¹ and the kon was 1.15e+06 M⁻¹ s⁻¹.

Another assay concerns the target T1, cynomolgus monkey serum albumin. Kind of assay: SPR Biacore 8K+ SCK, albumin on chip, pH 7.4.
Take B1: the Kd amounted to 37.9 nM, the off-rate constant (koff) turned out to be 0.0266 s⁻¹ and the on-rate (kon) worked out at 701000 M⁻¹ s⁻¹.
B2 gave a Kd of 55.6 nM, a koff of 0.0444 s⁻¹ and a kon of 797000 M⁻¹ s⁻¹.
For B3, binding was put at a Kd of 182 nM, the koff stood at 0.356 s⁻¹ and the kon is 1.95e+06 M⁻¹ s⁻¹.
On the same counts, the results for B4 are 152 nM, 0.0809 s⁻¹ and 533000 M⁻¹ s⁻¹.
In turn, B5 yielded a Kd of 146 nM, a koff of 0.129 s⁻¹ and an on-rate (kon) of 881000 M⁻¹ s⁻¹.

The target in a further assay is T2, human serum albumin. Nature of the assay: SPR Biacore, HSA coated, kinetic fit, pH 5.5.
B6: the Kd came out at 54.9 nM.

The target of the next assay is T2, human serum albumin. Kind of assay: SPR Biacore 3000, HSA on chip, ratio of R0 at pH 5.5 and pH 7.4.
Turning to B7, the “R0 5.5/7.4” value came to 3.
Same read-out and setting: the figure for B8 is 14.9.
Same read-out and setting: for B9 the value was 19.9; for B10, 16.
On the same count and under the same terms, for B11 the value was 370.

A further assay concerns the target T2, human serum albumin. Nature of the assay: SPR Biacore 3000, HSA on chip, pH 5.5.
For B7, the “R0 pH 5.5” value worked out at 351 RU and the koff was determined as 0.00016 s⁻¹.
On the same counts, the results for B8 are 93.9 RU and 9.72e-05 s⁻¹.
On the same counts, the results for B9 are 164 RU and 0.000135 s⁻¹.
In the case of B10, the “R0 pH 5.5” value was 8.91 RU and the koff is 0.00301 s⁻¹.
For B11, in that order: 235 RU and 0.00174 s⁻¹.

The target of another assay is T2, human serum albumin. Kind of assay: SPR Biacore, HSA coated, steady state, pH 7.4.
With B6, the Kd worked out at 315 nM.

The next assay has as its target T1, cynomolgus monkey serum albumin. Nature of the assay: SPR Biacore 8K+ SCK, albumin on chip, pH 5.5.
In turn, B1 had a Kd of 21.5 nM, a koff of 0.0195 s⁻¹ and a kon of 905000 M⁻¹ s⁻¹.
For B2, in that order: 25.6 nM, 0.0241 s⁻¹ and 940000 M⁻¹ s⁻¹.
Regarding B3, binding was characterised by a dissociation constant (Kd) of 76 nM, the koff was 0.0831 s⁻¹ and the kon turned out to be 1.09e+06 M⁻¹ s⁻¹.
On the same counts, the results for B4 are 47.2 nM, 0.0495 s⁻¹ and 1.05e+06 M⁻¹ s⁻¹.
Regarding B5, the Kd is 61.6 nM, the koff came to 0.0711 s⁻¹ and the kon was determined as 1.15e+06 M⁻¹ s⁻¹.

The target of the next assay is T2, human serum albumin. Kind of assay: SPR Biacore, HSA coated, kinetic fit, pH 7.4.
For B6, binding was put at a Kd of 206 nM.

For a further assay, the target named is T2, human serum albumin. Kind of assay: SPR Biacore 8K+ SCK, albumin on chip, pH 5.5.
In the case of B1, the Kd was found to be 19.3 nM, the koff came out at 0.0184 s⁻¹ and the kon was found to be 950000 M⁻¹ s⁻¹.
For B2, in that order: 28.6 nM, 0.0268 s⁻¹ and 935000 M⁻¹ s⁻¹.
For B3, in that order: 73.8 nM, 0.0837 s⁻¹ and 1.13e+06 M⁻¹ s⁻¹.
Regarding B4, the Kd was determined as 42.5 nM, the koff came to 0.0473 s⁻¹ and the on-rate (kon) worked out at 1.11e+06 M⁻¹ s⁻¹.
On the same counts, the results for B5 are 55 nM, 0.0672 s⁻¹ and 1.22e+06 M⁻¹ s⁻¹.

The target of another assay is T2, human serum albumin. Kind of assay: SPR Biacore 8K+ SCK, albumin on chip, pH 7.4. This is another data set of the same source.
As to B12, the “fold decrease in affinity compared to the parental Alb23 VHH fragment” value (“fold decrease in affinity” below) was no less than 10 fold.
As to B1, the “fold decrease in affinity” value was no less than 10 fold.
For the molecule B2, the “fold decrease in affinity” value was no less than 10 fold.
For B3, the “fold decrease in affinity” value is no less than 10 fold.
Same read-out and setting: for B4 the value was no less than 10 fold; for B5, no less than 10 fold.

In the next assay the target is T3, mouse serum albumin (mouse, UniProt P07724 25-608).
T3 construct: Immobilised on SPR chips; also called mouseSA; MSA
Kind of assay: SPR Biacore 8K+ SCK, albumin on chip, pH 7.4.
B1 displayed a Kd of 87.8 nM.
The same measure, in the same setting: the figure for B2 is 354 nM; for B3 it is 149 nM.
Still for that read-out and setting: the figure for B4 is 73.1 nM.
The same measure, in the same setting: the figure for B5 is 118 nM.

The next assay deals with T2, human serum albumin. Nature of the assay: SPR Biacore 8K+ SCK, albumin on chip, pH 7.4. The source holds these as a separate data set.
For B1, the Kd came to 30.6 nM.
On the same count and under the same terms, for B2 the value was 51 nM; for B3, 175 nM; for B4, 100 nM.
The same measure, in the same setting: for B5 the value was 116 nM.

A further assay has as its target T1, cynomolgus monkey serum albumin. Kind of assay: SPR Biacore 8K+ SCK, albumin on chip, pH 7.4. This is another data set of the same source.
In the case of B1, the Kd is 37.9 nM.
B2 returned a Kd of 55.6 nM.
B3 gave a Kd of 182 nM.
The same measure, in the same setting: the figure for B4 is 152 nM.
On the same count and under the same terms, for B5 the value was 146 nM.

The target in another assay is T2, human serum albumin. Nature of the assay: SPR Biacore 8K+ SCK, albumin on chip, ratio of KD.
In the case of B1, the “KD pH 5.5/pH 7.4” value came out at 0.63.
On to B2, for which the “KD pH 5.5/pH 7.4” value turned out to be 0.56.
Same read-out and setting: the figure for B3 is 0.42.
Same read-out and setting: the figure for B4 is 0.43.
Still for that read-out and setting: the figure for B5 is 0.47.

Usually Kd stands for the free concentration of one partner at which half of the binding sites on the other are occupied at equilibrium, for simple one-to-one binding. What is called koff is the first-order rate constant of dissociation. What is called kon is the second-order rate constant of association.

For the origin of these results see patent US20260152573A1 (ARGENX, published 2026).
